# According to PMC7054389, “Genome-Wide Analysis of the Glucose-6-Phosphate Dehydrogenase Family in Soybean and Functional Identification of GmG6PDH2 Involvement in Salt Stress” (Frontiers in Plant Science, 2020):
# B1: GmG6PDH2 (Glycine max) (protein)
# chain: MGTSEWHIERRSSFGTESPLAREAGNVPETGSLSIVVLGASGDLAKKKTFPALFHLYRQGFLPADEVHIFGYARTKISDDELRNRLRGYLVPNKGASPQLLEDVEKFLQLIKYVSGSYDSEDGFRLLDKEISEHEYLKKSVEGLSRRLFYLALPPSVYPSVCKMIKTCCMNKSDLGGWTRVVVEKPFGKDLESAEELSTEIGKLFEEPQIYRIDHYLGKELVQNLLVLRFANRFFLPLWNRDNIDNVQIVFREDFGTDGRGGYFDQYGIIRDIIQNHLLQVLCLVAMEKPVSLRPEHIRDEKVKVLESVLPIRDDEVVLGQYEGYKDDPTVPDKSNTPTFATVILRIHNERWEGVPFILKAGKALNSRKAEIRVQFKDVPGDIFKCKKQGRNEFVIRLQPLEAMYMKLTVKQPGLEMSTVQSELDLSYGQRYQGVTIPEAYERLILDTIKGDQQHFVRRDELKASWQIFTPLLHRIDEGEFKPLPYKPGSRGPAEADQLLEKAGYVQTHGYIWIPPTL
# notes: full-length CDS in pET32a(+), His-tagged, E. coli Rosetta; crude lysate supernatant, not purified
# Substrate: NC(=O)c1ccc[n+]([C@@H]2O[C@H](COP(=O)(O)OP(=O)(O)OC[C@H]3O[C@@H](n4cnc5c(N)ncnc54)[C@H](OP(=O)(O)O)[C@@H]3O)[C@@H](O)[C@H]2O)c1
# Experiment: NADP+ reduction, Eadie-Hofstee plot, crude E. coli extract
# Assay type: biochemical, Glycine max
# Conditions: co-substrate G6P, assay as for plant extracts: 50 mM Hepes-Tris pH 7.8, 3.3 mM MgCl2
protein,measurement,value
B1,Km,33 µM
